Biological target: LOXL3 (UniProt P58215)
Test: Co-IP of LOXL3 with LOXL3
Conditions: reference: wild type; sites S704

Chain of UniProt P58215 (P58215 whole entry S704A): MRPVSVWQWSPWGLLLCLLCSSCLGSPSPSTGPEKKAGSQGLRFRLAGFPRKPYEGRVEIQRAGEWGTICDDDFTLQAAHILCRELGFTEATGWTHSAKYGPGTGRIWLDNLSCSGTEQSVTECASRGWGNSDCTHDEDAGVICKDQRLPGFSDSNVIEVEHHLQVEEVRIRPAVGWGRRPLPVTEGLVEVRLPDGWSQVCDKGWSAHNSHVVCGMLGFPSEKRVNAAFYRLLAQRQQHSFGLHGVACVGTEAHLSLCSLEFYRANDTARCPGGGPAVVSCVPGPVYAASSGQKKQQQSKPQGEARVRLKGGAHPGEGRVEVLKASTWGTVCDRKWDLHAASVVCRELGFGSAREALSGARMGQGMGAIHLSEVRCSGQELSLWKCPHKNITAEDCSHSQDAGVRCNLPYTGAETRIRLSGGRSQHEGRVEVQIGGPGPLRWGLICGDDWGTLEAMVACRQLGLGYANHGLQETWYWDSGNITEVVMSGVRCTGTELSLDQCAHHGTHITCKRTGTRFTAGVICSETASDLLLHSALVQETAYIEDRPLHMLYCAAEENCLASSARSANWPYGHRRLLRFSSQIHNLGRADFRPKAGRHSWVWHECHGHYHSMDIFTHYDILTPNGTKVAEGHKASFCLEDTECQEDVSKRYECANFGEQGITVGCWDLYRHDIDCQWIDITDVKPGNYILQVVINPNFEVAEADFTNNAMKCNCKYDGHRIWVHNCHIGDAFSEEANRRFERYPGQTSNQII

In the case of LOXL3 (from UniProt P58215) S704A, the “binding against the reference” value is reported as “weaker”.

From PMC10229567
